Patent US20250223358A1
“And” between values parts separate entries of the source, which are not always exact repeats. Equal values may be shown once.

Molecular target: human CD3 (human) (UniProt P07766)
Assay: cell-based or functional assay

human CD3 (human), sequence (P07766 23-207, chain 1 of 3): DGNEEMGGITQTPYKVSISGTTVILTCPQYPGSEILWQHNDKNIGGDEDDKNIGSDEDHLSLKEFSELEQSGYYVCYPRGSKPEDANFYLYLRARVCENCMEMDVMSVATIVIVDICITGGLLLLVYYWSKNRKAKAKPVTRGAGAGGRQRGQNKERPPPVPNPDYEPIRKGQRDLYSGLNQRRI
human CD3 (human), sequence (P04234 22-171, chain 2 of 3, further chain): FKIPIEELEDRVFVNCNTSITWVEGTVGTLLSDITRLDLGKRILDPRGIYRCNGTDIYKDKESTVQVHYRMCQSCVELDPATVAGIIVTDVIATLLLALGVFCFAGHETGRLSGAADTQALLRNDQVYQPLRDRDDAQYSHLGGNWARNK
human CD3 (human), sequence (P09693 23-182, chain 3 of 3, further chain): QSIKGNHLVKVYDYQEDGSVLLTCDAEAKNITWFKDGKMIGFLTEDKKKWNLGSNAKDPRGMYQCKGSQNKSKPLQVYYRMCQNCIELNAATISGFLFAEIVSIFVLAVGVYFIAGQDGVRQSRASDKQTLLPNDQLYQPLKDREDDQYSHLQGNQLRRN

RLU (Jurkat-NFAT-luciferase activation, antibody coated at 50 ug/mL), Plate 1: 564 RLU and 582 RLU | RLU (Jurkat-NFAT-luciferase activation, antibody coated at 50 ug/mL), Plate 2: 386 RLU and 380 RLU | RLU (Jurkat-NFAT-luciferase activation, antibody coated at 50 ug/mL), Plate 3: 237 RLU and 231 RLU
Substance: Isotype control (antibody)
